Values quoted from earlier work as cited in publication PMC6430685.

Target: BAX (Homo sapiens) (UniProt Q07812)
Sequence (Q07812 whole entry): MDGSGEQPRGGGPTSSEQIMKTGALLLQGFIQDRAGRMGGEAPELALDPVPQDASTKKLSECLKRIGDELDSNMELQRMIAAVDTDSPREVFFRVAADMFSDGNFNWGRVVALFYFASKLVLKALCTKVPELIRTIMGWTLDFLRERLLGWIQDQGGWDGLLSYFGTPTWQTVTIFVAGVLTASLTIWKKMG

Sequence of vMIA (P16778 23-487): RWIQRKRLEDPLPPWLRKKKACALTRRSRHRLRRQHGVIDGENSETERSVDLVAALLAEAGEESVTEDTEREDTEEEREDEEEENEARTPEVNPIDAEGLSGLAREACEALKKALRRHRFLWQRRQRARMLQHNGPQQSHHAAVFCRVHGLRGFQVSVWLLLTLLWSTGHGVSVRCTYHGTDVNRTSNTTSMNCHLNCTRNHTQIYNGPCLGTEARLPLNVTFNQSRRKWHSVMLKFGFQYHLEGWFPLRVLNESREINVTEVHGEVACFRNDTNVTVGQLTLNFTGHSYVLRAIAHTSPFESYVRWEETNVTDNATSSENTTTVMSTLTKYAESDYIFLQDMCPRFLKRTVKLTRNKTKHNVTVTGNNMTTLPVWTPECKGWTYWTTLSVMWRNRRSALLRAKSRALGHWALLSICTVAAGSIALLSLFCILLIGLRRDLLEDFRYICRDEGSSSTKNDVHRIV

## vMIA (from UniProt P16778)
  Kd: 140 nM
